What was measured:
[1] = biological target: T1, GST-Rev fusion protein produced in bacteria (HIV-1, UniProt P04618 1-116); assay: GST-Rev on glutathione-agarose column, elution with glutathione, immunoblot against FLAG
T1 construct: also called GXT-Rev
T1 sequence: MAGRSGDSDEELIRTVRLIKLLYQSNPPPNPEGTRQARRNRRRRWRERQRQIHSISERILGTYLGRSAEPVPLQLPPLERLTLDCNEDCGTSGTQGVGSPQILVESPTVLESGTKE

Rev protein of HIV-1 = biological target: T2, Rev protein of HIV-1 (HIV-1, UniProt P04618 1-116); assay: gel retardation of the Rev-RRE RNA complex
T2 construct: also called pSG-Rev
T2 sequence: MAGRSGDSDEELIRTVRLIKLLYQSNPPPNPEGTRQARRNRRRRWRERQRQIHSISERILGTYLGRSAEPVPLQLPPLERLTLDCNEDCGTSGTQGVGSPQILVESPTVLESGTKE

[2] = biological target: T3, LexA alone (bait control) (UniProt P0A7C2 1-202); assay: two-hybrid test in HeLa cells, SEAP reporter
T3 construct: also called pLex9
T3 sequence: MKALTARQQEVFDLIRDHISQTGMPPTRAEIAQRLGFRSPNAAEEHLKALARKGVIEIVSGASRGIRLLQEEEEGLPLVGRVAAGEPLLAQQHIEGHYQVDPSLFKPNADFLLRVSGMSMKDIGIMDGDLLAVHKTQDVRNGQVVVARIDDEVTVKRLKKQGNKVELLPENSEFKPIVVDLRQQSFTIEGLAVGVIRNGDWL

[3] = biological target: T3, LexA alone (bait control); assay: yeast two-hybrid, beta-galactosidase filter test; W = white after 6 h

B1: SHPT-8 produced in bacteria (N-terminal FLAG epitope), purified (designed binder)
chain: MSDQEAKPSTEDLGDKKEGEYIKLKVIGQDSSEIHFKVKMTTHLKKLKESYCQRQGVPMNSLRFLFEGQRIADNHTPKELGMEEEDVIEVYQEQTARPPNPKKEIELGGGGSFTMRGVDPGRKKRRQRRRG
notes: also called pFLAG-SUMO-1-P 8
B1: no binding [1]; no binding (Rev protein of HIV-1).

ITRRIEMPGRDIPGVDGSILRGCWDPGRKKRRQRRRG (designed binder) [Mammalian prey FLAG-NLS-Vp16 activation domain-heptapeptide-Tat PTD, pSG-FNV-P-T9]: no binding [2].

GGGGSITRRIEMPGRDIPGVDGSILRGCWDPGRKKRRQRRRG (designed binder) [Yeast prey GAL4 activation domain-heptapeptide-Tat PTD, clone 9 (LexTat screening)]: no binding [3].
